# Assay results: patent publication US20230348564A1, “ANTI-CANCER PROTEINS” (UNICHEM LABORATORIES LTD, priority 2020, published 2023)
# How the values were obtained:
# [1] = tested on: AGS
# [2] = tested on: Glioblastoma (U251MG); assay: cytotoxicity in Brain Tumor Cell lines by MTT assay; conditions: 72 h
# [3] = tested on: Astrocytoma (U87MG); assay: as above; conditions: 72 h
# [4] = tested on: IOMM-Lee cell line; assay: cell cycle distribution analysis by Propidium Iodide (PI) staining; type: cell-based, Human; conditions: 1 μg/mL-500 μg/mL
# Experimental: The evaluation of pro-apoptotic effect of SEQ ID NO. 2 in brain tumor cell lines U251MG & IOMM Lee was conducted. The cells were treated with SEQ ID NO. 2 at various concentrations around IC50 values. Resultant effect on apoptosis was determined via externalization of Phosphatidyl Serine (PS) on cell membrane by Annexin-V staining, mitochondrial membrane depolarization by JC-1 staining and cell cycle distribution analysis by Propidium Iodide (PI) staining. Increase in apoptotic markers in U251MG & IOMM-Lee cell lines reflected the pro-apoptotic potential of SEQ ID NO. 2 in brain tumor. • Externalization of PS on cell membrane by Annexin-V staining on U251MG cell line: SEQ ID NO.
# [5] = tested on: TNF-α; assay: biomarker levels in IOMM-Lee by multiplex analysis; type: cell-based, Human; conditions: 1 μg/mL-80 μg/mL, 48 h
# Text: (§1) Effect of SEQ ID No 2 on the expression of following 7 biomarkers were estimated in Human Meningioma cell line (IOMM-Lee) using multiplex analysis: TNF-alpha, VEGF, VEGFR2, HGF, HGFR/c-MET, PDGF-BB, and Contactin-1. Levels of another marker, Notch-1 were also estimated by ELISA in the same cell line. These 8 biomarkers play very crucial role in the pathogenesis and progression of Brain Tumor. […] Supernatants were collected and the levels of these 8 markers were investigated.
# [6] = tested on: Contactin-1; assay: biomarker levels in IOMM-Lee by multiplex analysis; type: cell-based, Human; conditions: 1 μg/mL-80 μg/mL, 48 h
# Text: as §1
# [7] = tested on: VEGF; assay: biomarker levels in IOMM-Lee by multiplex analysis; type: cell-based, Human; conditions: 1 μg/mL-80 μg/mL, 48 h
# Text: as §1
# [8] = tested on: VEGFR2; assay: biomarker levels in IOMM-Lee by multiplex analysis; type: cell-based, Human; conditions: 1 μg/mL-80 μg/mL, 48 h
# Text: as §1
# [9] = tested on: HGF; assay: biomarker levels in IOMM-Lee by multiplex analysis; type: cell-based, Human; conditions: 1 μg/mL-80 μg/mL, 48 h
# Text: as §1
# [10] = tested on: PDGF-BB; assay: biomarker levels in IOMM-Lee by multiplex analysis; type: cell-based, Human; conditions: 1 μg/mL-80 μg/mL, 48 h
# Text: as §1
# [11] = tested on: HGFR/c-MET; assay: biomarker levels in IOMM-Lee by multiplex analysis; type: cell-based, Human; conditions: 1 μg/mL-80 μg/mL, 48 h
# Text: as §1
# [12] = tested on: MCF-7
# [13] = tested on: PANC-1; assay: JC-1 assay, mitochondrial membrane depolarization; type: cell-based, Human; conditions: 16h
# Experimental: (§2) To evaluate the in vitro apoptotic effect of recombinant lectin having the amino acid sequence of SEQ ID NO.2 in MDA-MB-231 (breast cancer) and PANG-1 (pancreatic cancer) cell line by JC-1 assay, an increase in mitochondrial membrane depolarization was used as a marker of apoptosis. […] 2 using JC-1 dye based method. […] The cell lines were grown in Dulbecco's Modified Eagle Medium (DMEM)+10% heat inactivated FBS at 37° C. (95% humidity and 5% CO2). […] Recombinant lectin having the amino acid sequence of SEQ ID NO. 2 was diluted in serum free medium. Doxorubicin was used as positive control and stock solution was prepared in dimethyl sulfoxide (DMSO). […] The cells were then incubated overnight under growth conditions to allow the cell recovery and exponential growth. Cells were treated with the recombinant lectin of SEQ ID NO. […] Following respective treatments the cells in the above plate were incubated for 16h in CO2 incubator at 37° C., 5% CO2 and 95% humidity.
# (§3) After 16h of incubation, the supernatants were discarded and 100 μL of JC1-dye solution (prepared by diluting 1 mM DMSO stock in to 10 μM in 1×PBS) was added to each well. The cells were then incubated with the dye in CO2 incubator at 37° C. for 15 min. After 15 min of incubation, the supernatant was removed and the cells were washed twice with 1×PBS and then 100 μL of 1×PBS was added to each well. Red fluorescence (excitation 550 nm, emission 600 nm) and green fluorescence (excitation 485 nm, emission 535 nm) were measured using Biotek Synergy FIT plate reader. The mitochondrial membrane potential […] was calculated as the ratio of intensity of red fluorescence to intensity of green fluorescence described as follows:
# (§4) ΔΨM=Intensity of red fluorescence/Intensity of green fluorescence
# (§5) The percentage decrease of Red fluorescence/Green fluorescence corresponding to each treatment was calculated using the following formula:
# (§6) Where X=Δψm corresponding to treated cells R=ΔΨM corresponding to control wells.
# [14] = tested on: MDA-MB-231; assay: JC-1 assay, mitochondrial membrane depolarization; type: cell-based, Human; conditions: 16h
# Experimental: as §2, §3, §4, §5, §6
# [15] = tested on: T-24
molecule,measurement,setting,value
"SEQ ID NO. 2: recombinant lectin; variant of the S. rolfsii lectin amino acid sequence (reported as Rec-2 in WO 2010/095143) (protein, In vitro synthesis) TYKITVRVYQTNPDAFFHPVEKTVWKYANGGTWTITDDQHVLTMGGSGTSGTLRFHADNGESFTATFGVHNYKRWCDIVTNLAADETGMVINQQYYSQKNREEARERQLSNYQVKNAKGRNFQIVYTEAEGNDLHANLIIG",% Cytotoxicity,[1],65.3%
same,IC50 Value,[2],11.05 µg/mL
same,IC50 Value,[3],98.88 µg/mL
same,increase in apoptotic population; Sub (G0/G1) as compared to Control (Untreated),[4],1.1-35.3 fold
same,Percentage inhibition on levels of TNF-α,[5],16.8%-42.3%
same,Percentage inhibition on levels of Contactin-1,[6],0.3%-27.2%
same,Percentage inhibition on levels of VEGF,[7],3.9%-49.3%
same,Percentage inhibition on levels of VEGFR2,[8],17.8%-22.5%
same,Percentage inhibition on levels of HGF,[9],43.8%-93%^
same,Percentage inhibition on levels of PDGF-BB,[10],33.6%-100%
same,Percentage inhibition on levels of HGFR/c-MET,[11],5.5%-19.3%
same,% Cytotoxicity,[12],28.0%
same,Average Green fluorescence,[13]; 2.5 μg/mL,315.0
same,Average Red fluorescence,[13]; 2.5 μg/mL,595.7
same,Percentage decrease in MMP (%),[13]; 2.5 μg/mL,9.5%
same,Red/Green ratio,[13]; 2.5 μg/mL,1.89
same,depolarization of mitochondrial membrane,[13]; 2.5 μg/mL-80 μg/mL,9.5%-51.7%
same,Average Green fluorescence,[13]; 5 μg/mL,293.3
same,Average Red fluorescence,[13]; 5 μg/mL,452.3
same,Percentage decrease in MMP (%),[13]; 5 μg/mL,26.2%
same,Red/Green ratio,[13]; 5 μg/mL,1.54
same,Average Green fluorescence,[13]; 10 μg/mL,271.7
same,Average Red fluorescence,[13]; 10 μg/mL,301.7
same,Percentage decrease in MMP (%),[13]; 10 μg/mL,46.9%
same,Red/Green ratio,[13]; 10 μg/mL,1.11
same,Average Green fluorescence,[13]; 20 μg/mL,234.3
same,Average Red fluorescence,[13]; 20 μg/mL,265.7
same,Percentage decrease in MMP (%),[13]; 20 μg/mL,45.8%
same,Red/Green ratio,[13]; 20 μg/mL,1.13
same,Average Green fluorescence,[13]; 40 μg/mL,263.3
same,Average Red fluorescence,[13]; 40 μg/mL,266.0
same,Percentage decrease in MMP (%),[13]; 40 μg/mL,51.7%
same,Red/Green ratio,[13]; 40 μg/mL,1.01
same,Average Green fluorescence,[13]; 80 μg/mL,257.0
same,Average Red fluorescence,[13]; 80 μg/mL,272.0
same,Percentage decrease in MMP (%),[13]; 80 μg/mL,49.4%
same,Red/Green ratio,[13]; 80 μg/mL,1.06
same,Average Green fluorescence,[14]; 2.5 μg/mL,703.0
same,Average Red fluorescence,[14]; 2.5 μg/mL,769.7
same,Percentage decrease in MMP (%),[14]; 2.5 μg/mL,54.1%
same,Red/Green ratio,[14]; 2.5 μg/mL,1.09
same,depolarization of mitochondrial membrane,[14]; 2.5 μg/mL-80 μg/mL,19.8%-54.1%
same,Average Green fluorescence,[14]; 5 μg/mL,560.0
same,Average Red fluorescence,[14]; 5 μg/mL,709.3
same,Percentage decrease in MMP (%),[14]; 5 μg/mL,46.9%
same,Red/Green ratio,[14]; 5 μg/mL,1.27
same,Average Green fluorescence,[14]; 10 μg/mL,596.3
same,Average Red fluorescence,[14]; 10 μg/mL,1098.3
same,Percentage decrease in MMP (%),[14]; 10 μg/mL,22.8%
same,Red/Green ratio,[14]; 10 μg/mL,1.84
same,Average Green fluorescence,[14]; 20 μg/mL,497.3
same,Average Red fluorescence,[14]; 20 μg/mL,929.3
same,Percentage decrease in MMP (%),[14]; 20 μg/mL,21.7%
same,Red/Green ratio,[14]; 20 μg/mL,1.87
same,Average Green fluorescence,[14]; 40 μg/mL,535.7
same,Average Red fluorescence,[14]; 40 μg/mL,1009.0
same,Percentage decrease in MMP (%),[14]; 40 μg/mL,21.0%
same,Red/Green ratio,[14]; 40 μg/mL,1.88
same,Average Green fluorescence,[14]; 80 μg/mL,500.3
same,Average Red fluorescence,[14]; 80 μg/mL,957.3
same,Percentage decrease in MMP (%),[14]; 80 μg/mL,19.8%
same,Red/Green ratio,[14]; 80 μg/mL,1.91
same,% Cytotoxicity,[15],93.1%
